Results published in IntAct's records for PubMed 9299557.

B1: Tumor necrosis factor alpha-induced protein 3 (Homo sapiens), P21580 (parent)
chain: MAEQVLPQALYLSNMRKAVKIRERTPEDIFKPTNGIIHHFKTMHRYTLEMFRTCQFCPQFREIIHKALIDRNIQATLESQKKLNWCREVRKLVALKTNGDGNCLMHATSQYMWGVQDTDLVLRKALFSTLKETDTRNFKFRWQLESLKSQEFVETGLCYDTRNWNDEWDNLIKMASTDTPMARSGLQYNSLEEIHIFVLCNILRRPIIVISDKMLRSLESGSNFAPLKVGGIYLPLHWPAQECYRYPIVLGYDSHHFVPLVTLKDSGPEIRAVPLVNRDRGRFEDLKVHFLTDPENEMKEKLLKEYLMVIEIPVQGWDHGTTHLINAAKLDEANLPKEINLVDDYFELVQHEYKKWQENSEQGRREGHAQNPMEPSVPQLSLMDVKCETPNCPFFMSVNTQPLCHECSERRQKNQNKLPKLNSKPGPEGLPGMALGASRGEAYEPLAWNPEESTGGPHSAPPTAPSPFLFSETTAMKCRSPGCPFTLNVQHNGFCERCHNARQLHASHAPDHTRHLDPGKCQACLQDVTRTFNGICSTCFKRTTAEASSSLSTSLPPSCHQRSKSDPSRLVRSPSPHSCHRAGNDAPAGCLSQAARTPGDRTGTSKCRKAGCVYFGTPENKGFCTLCFIEYRENKHFAAASGKVSPTASRFQNTIPCLGRECGTLGSTMFEGYCQKCFIEAQNQRFHEAKRTEEQLRSSQRRDVPRTTQSTSRPKCARASCKNILACRSEELCMECQHPNQRMGPGAHRGEPAPEDPPKQRCRAPACDHFGNAKCNGYCNECFQFKQMYG
partner: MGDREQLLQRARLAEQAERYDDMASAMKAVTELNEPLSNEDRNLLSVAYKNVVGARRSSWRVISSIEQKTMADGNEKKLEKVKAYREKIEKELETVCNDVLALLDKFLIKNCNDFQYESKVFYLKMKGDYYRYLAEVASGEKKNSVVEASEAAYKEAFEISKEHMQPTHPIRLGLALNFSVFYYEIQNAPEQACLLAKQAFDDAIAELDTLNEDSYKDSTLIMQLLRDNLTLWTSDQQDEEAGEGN
B2: Tumor necrosis factor alpha-induced protein 3 (Homo sapiens), P21580 (parent)
chain: B1 chain

Variants of: B1
Conditions: with 1433f_mouse Ywhah

| effect of a mutation on the interaction | Variant |
| --- | --- |
| disrupting interaction | S565A |
| disrupting interaction | R562A |

Variants of: B2
Conditions: with 1433z_mouse Ywhaz

| effect of a mutation on the interaction | Variant |
| --- | --- |
| disrupting interaction | S565A |
| disrupting interaction | R562A |
